Experimental findings from the supplement of paper PMC9170038 are described below.

The subject of the data set is MS2 coat protein. In words: apparent KD of MS2 coat protein; designed switch direction (-1 OFF switch, 1 ON switch): 1; higher = weaker reporter binding. The gist of the method:
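Designed RNA switches with common flanks were transcribed on Illumina chips by stalled E. coli RNA polymerase and titrated with SNAP-549-labelled MS2 coat protein, from 0.7 or 1.5 nM doubling to 3 µM, in Tris-HCl pH 7.5 buffer with KCl, MgCl2, BSA, DTT, tRNA and Tween-20. Steps lasted 0.8–1.5 h (lowest) to 10–20 min (highest). Titrations ran without input, with 200 uM small-molecule ligand, or with an oligonucleotide input. Normalised cluster fluorescence was curve-fitted, and apparent KD is the per-design median over clusters.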

Setting [1] is: input ligand: microRNA oligo, concentration not stated.
Where [2] appears, read: Eterna round: R95, input ligand: FMN 200 uM.
[3] abbreviates: Eterna round: R95, input ligand: microRNA oligo, concentration not stated.
[4] abbreviates: Eterna round: R95, input ligand: none.

In the case of “ACAUGAGAUGGAGGAUAUGUUGUACCUACAUGUGACAUGAGGAUCACCCAUGUGGUAAGUAUGAUACAGAAGGCCAAGAUAUGU [Equivalance 59 - Jieux - Same State NG 2] (Eterna round: R96, puzzle: Same State NG 2)”, the “apparent KD of MS2 coat protein” value turned out to be 16.5 nM (input ligand: FMN 200 uM), 15.8 nM under setting [1] and 27.2 nM (input ligand: none).
Turning to “AACAAUCUAUCUGAGGAUAUCAUGAAAUAAACAUGAGGAUCACCCAUGUGCAGGAAAACUGCAUAUGAGAAGGCUGAUAGAUUGA [salish99_ss2_r3_051] (puzzle: Same State 2)”, the “apparent KD of MS2 coat protein” value reads like this: under setting [2], 78 nM; under setting [3], 574 nM; under setting [4], 5350 nM.
With “AUAAAACAUGAGGAUCACCCAUGUCAACAAAGUCGAGGAUAUGGGCAAAUAAAAUAAUAACCAGAAGGCGAAUAAU [salish99_ss1_r3_018] (puzzle: Same State 1)”, the “apparent KD of MS2 coat protein” value by setting is: under setting [2], 63.9 nM; under setting [3], 232 nM; under setting [4], 546 nM.
As for “AGCUAUUAAUCAGGAUAUGGUGACAUGAGGAUCACCCAUGUAUUGAUGAUUAAAUGUGGUCAAUACCAGAAGGGAUUACUAACA [SameState NG2 #51] (Eterna round: R96, puzzle: Same State NG 2)”, the “apparent KD of MS2 coat protein” value is, setting by setting: (input ligand: FMN 200 uM) 44.6 nM; under setting [1], 401 nM; (input ligand: none) 537 nM.
The like results for “GACCGCGAGGAAGGAUAUGGAGCCUUAUUGGCUCCAGAAGGUCCAUAAAGGACAUGAGGAUCACCCAUGUGGGUUGAAGCGGUC [Fiskers NG1ss - 38] (Eterna round: R96, puzzle: Same State NG 1)” were, in that order, 24.6 nM, 125 nM and 173 nM.
Take “GUGGUCAGACAUGAGGAUCACCCAUGUGGAAUAAAUAAGGGACAGGAUAUUCAAUAUAGGAUAUAGAAGAAGGGUUGGUUGGUG (Eterna round: R96, puzzle: Same State NG 3)”: the “apparent KD of MS2 coat protein” value under setting [1] stood at 104 nM.
Take “GGUCCAGCCUGAGCUGGACAAAAGCAUGUACAUGAGGAUCACCCAUGUCAUGUACAAGCUUUUUGCUCGUCUUAAUU [Mat - hsa-mir-208a - 87] (puzzle: Sensor for hsa-mir-208a)”: the “apparent KD of MS2 coat protein” value was 514 nM under setting [2], 15.1 nM under setting [3] and 762 nM under setting [4].
With “GUAGCAUACCGAGGAUAUUCAUAUAAUAUACAUGAGGAUCACCCAUGUUAUAGGCGAAAGCCUUGGGAGAAGGCGGAAUGCUAC [Xeonanis - 20 Mod62] (Eterna round: R96, puzzle: Same State NG 2)”, the “apparent KD of MS2 coat protein” value (input ligand: FMN 200 uM) was found to be 8.73 nM, the “apparent KD of MS2 coat protein” value under setting [1] is 15.3 nM and the “apparent KD of MS2 coat protein” value (input ligand: none) was 14.9 nM.
“AAAGGACAUGAGGAUCACCCAUGUAGAAAAUACACAGGAUAUCGUCAUAUCGAAAUAUAAUGAGAAGGGUGCAAAA [Zaanininra] (puzzle: Same State 1)”: the “apparent KD of MS2 coat protein” value runs as follows: under setting [2], 73.5 nM; under setting [3], 179 nM; under setting [4], 256 nM.
As for “UCUUGGUUUUUGCUCGUUUUUUGUGUUGAACAUGAGGAUCACCCAUGUAUUGUACAAUCCGAUUUAAUAAUGGUCCG [JMF 50] (puzzle: Sensor for hsa-mir-208a)”, the “apparent KD of MS2 coat protein” value reads like this: under setting [2], 42.5 nM; under setting [3], 48.4 nM; under setting [4], 46.4 nM.
Regarding “AAAUAAAUGACUCAGGAUAUAUCAUAGAAUACAUGAGGAUCACCCAUGUUUUAAUAACAUGUUUGGUAGAAGGGAGUCAAUAAAU [LROPPY Same State 2 - v05_deltaG=1.86] (Eterna round: R96, puzzle: Same State 2)”, the “apparent KD of MS2 coat protein” value (input ligand: FMN 200 uM) was found to be 25.2 nM, the “apparent KD of MS2 coat protein” value under setting [1] was determined as 78.1 nM and the “apparent KD of MS2 coat protein” value (input ligand: none) turned out to be 105 nM.
The like results for “UGGCUCAGACGAGGAUAUGGUCAUGGCGCUUCGGCGCAUACAUGAGGAUCACCCAUGUAGGGUGAUCAGAAGGCGUCUGAGCCA [SSNG2/9-A2] (Eterna round: R96, puzzle: Same State NG 2)” were, in that order, 87.2 nM, 573 nM and 715 nM.
“ACAUGAGAUCUAGGAUAUAUUGUACCUACAUGUGACAUGAGGAUCACCCAUGUGGUAAGUAUGACAUAGAAGGAGAAGAUAUGU [Equivalance 95 - Jieux - Same State NG 2] (Eterna round: R96, puzzle: Same State NG 2)”: the “apparent KD of MS2 coat protein” value under setting [1] turned out to be 53.9 nM.
For the sequence “UACAAUCUAUCUGAGGAUAUCAUGAUCAUAACAUGAGGAUCACCCAUGUGCAGGAAAACUGCAUAUGAGAAGGCAGAUAGAUUGU [salish99_ss2_r3_073] (puzzle: Same State 2)”, the “apparent KD of MS2 coat protein” value came to 214 nM under setting [2], 154 nM under setting [3] and 863 nM under setting [4].
“GCUCGGACGAUGACCCACAUGAGGAUCACCCAUGUGCGUGGGCAGGAUAUCUAGAUUAAGGAUGUAGAGAAGGGUCGACCGAGC [SameState NG3 #30] (Eterna round: R96, puzzle: Same State NG 3)”: the “apparent KD of MS2 coat protein” value reads like this: (input ligand: FMN 200 uM) 415 nM; under setting [1], 58.4 nM; (input ligand: none) 386 nM.
In the case of “UUGAAGAAUUAAGGAUAUCGAGUCAAGAUGUUAAACAUGAGGAUCACCCAUGUGGGUUGCGGUAUCGAGAAGGUAAAUAACAAG [Mat - Same State NG 2 - JL mod - D53] (Eterna round: R96, puzzle: Same State NG 2)”, the “apparent KD of MS2 coat protein” value reads like this: (input ligand: FMN 200 uM) 23.3 nM; under setting [1], 23.6 nM; (input ligand: none) 38.2 nM.
In the case of “GUAAUCGUUAUAGGAUAUCAUGAGGAUUACCCAUGAGAAGGGUGAUCUCGAUCCAUAUUCAGAAAAUGAAUGUGGAUAGAUUGC [Omei NG1 A v2] (Eterna round: R96, puzzle: Same State NG 1)”, the “apparent KD of MS2 coat protein” value is 1010 nM (input ligand: FMN 200 uM), 292 nM under setting [1] and 1150 nM (input ligand: none).
For the sequence “UUAAUAAUGUUAGGAUAUACAUGAGGAAUCCUCGUAGAAGGAACAUGACAUGAGGAUCACCCAUGUAGCGCUCCGUAGAGCGCA [Mat - Same State NG 1 - JL mod - D45] (Eterna round: R96, puzzle: Same State NG 1)”, the “apparent KD of MS2 coat protein” value by setting is: (input ligand: FMN 200 uM) 1600 nM; under setting [1], 53.2 nM; (input ligand: none) 164 nM.
Regarding “GAGUAGGAGUUACAGGAUAUAUGGAGGAGGACAUGAGGAUCACCCAUGUGAGAGAUGAGAGGAGGAUAGAAGGGUAAGGGAGUAA [JR_SS2_Sub028] (puzzle: Same State 2)”, the “apparent KD of MS2 coat protein” value came out at 24 nM under setting [2], 20.6 nM under setting [3] and 46.2 nM under setting [4].
With “GUAGCAUGCAGGCAGGAUAUUCAUAUUAAAACAUGAGGAUCACCCAUGUAGGCCAGAAGGCCUUGGGAGAAGGGCCACAUGCUAC [Xeonanis - 17] (puzzle: Same State 2)”, the “apparent KD of MS2 coat protein” value under setting [2] worked out at 36.9 nM, the “apparent KD of MS2 coat protein” value under setting [3] is 595 nM and the “apparent KD of MS2 coat protein” value under setting [4] worked out at 800 nM.
Consider “GUAGCAUACCGAGGAUAUUCACAUGAGGAUCACCCAUGUAUUAAUAGGCCACAUUAGUGGCCUUGGGAGAAGGCGGAAUGCUAC [Xeonanis - 20 Mod48] (Eterna round: R96, puzzle: Same State NG 2)”, for which the “apparent KD of MS2 coat protein” value came out at 10.8 nM (input ligand: FMN 200 uM), 11 nM under setting [1] and 14.6 nM (input ligand: none).
For “AUAAAACAUGAGGAUCACCCAUGUCAACAAAGUCGAGGAUAUGGGCAAAUAAAAUAAGAACUAGAAGGCGAAUAAU [salish99_ss1_r3_031] (puzzle: Same State 1)”, the “apparent KD of MS2 coat protein” value runs as follows: under setting [2], 374 nM; under setting [3], 1770 nM; under setting [4], 139 nM.
As for “GGUCGGAACCACAUGAGGAUCACCCAUGUUCCGGAAACGGUACAGGAUAUCUGUCCGAAAAGGUCAGAGAAGGGUGAACCGACC [Fiskers NG3ss - 77] (Eterna round: R96, puzzle: Same State NG 3)”, the “apparent KD of MS2 coat protein” value was 1090 nM (input ligand: FMN 200 uM), 349 nM under setting [1] and 312 nM (input ligand: none).
“UUAAAACAUGAGGAUCACCCAUGUAAUAUAAUGGGAGGAUAUCUGAUUUAAUUAAAUUUAAGAGAAGGCCUAAAUU [Mat - Same State 1 - Mod of Eli - D55] (puzzle: Same State 1)”: the “apparent KD of MS2 coat protein” value is 28.9 nM under setting [2], 128 nM under setting [3] and 169 nM under setting [4].
Turning to “UCUUGGUUUUUGCUCGUUUUUUGUGUUGAACAUGAGGAUCACCCAUGUAUUGUACAGUCCAGUUUGAUAAUGGUCCG [JMF 56] (puzzle: Sensor for hsa-mir-208a)”, the “apparent KD of MS2 coat protein” value reads like this: under setting [2], 39 nM; under setting [3], 33.3 nM; under setting [4], 44.3 nM.
With “UCUUGGUUUUUGCUCGUUUUUUGUGUUGAACAUGAGGAUCACCCAUGUAUUGUACAAUCCGGUUUAAUAAUGGUCCG [JMF 51] (puzzle: Sensor for hsa-mir-208a)”, the “apparent KD of MS2 coat protein” value was found to be 35.2 nM under setting [2], 26.7 nM under setting [3] and 36.3 nM under setting [4].
Consider “UUGAAGAAUUAAGGAUAUUGAUUACAUAUGUUAAACAUGAGGAUCACCCAUGUGGGUUGCGGUAUCGAGAAGGUAAAUUAAUAG [Mat - same State NG 2 - JL mod - D77] (Eterna round: R96, puzzle: Same State NG 2)”, for which, under setting [1], the “apparent KD of MS2 coat protein” value was 89.6 nM.
Turning to “ACAAGCUUUUCUGUAUUGAAAGGUGGGAUACAUGAGGAUCACCCAUGUUUUUUUGAAAAUAAUAUUCCUCGUCUUAU [JR_SHM208A_Sub091] (puzzle: Sensor for hsa-mir-208a)”, the “apparent KD of MS2 coat protein” value stood at 51.5 nM under setting [2], 33.1 nM under setting [3] and 47.1 nM under setting [4].
